Source: US10752675B2, “Compounds for treating the remyelination blockade in diseases associated with the expression of HERV-W envelope protein” (GENEURO S.A., priority 2012, dated 2020)
“Also recorded” adds a separate entry of the source.

Assays:
[1] = tested on: MSRV-Env induced EAE in C57BL/6 mice; assay: EAE clinical score, Example 3.C (GNbAC1 and Sodium Fumarate); assay type: in vivo
From the text: Animals were weighed and clinically scored 5 days per week according to the following criteria: 0=no signs; 1=tail paralysis or hyper-reflex of hind limb(s) or unilateral hind limb weakness; 2=bilateral hind limb or forelimb weakness; 3=plus unilateral paralysis or major deficit; 4=complete hind limb or forelimb paralysis; 5=plus partial paralysis or major deficit of opposite limbs; 6=moribund or dead. These were adapted from standard criteria, in order to reflect the more rapid induction of brain and cervical cord lesions with this model.

human OPC = assay: Expression of MBP in human OPC in primary culture stimulated by MSRV-Env, with or without GNbAC1 (immunocytochemistry); assay type: cell-based; conditions: for MBP positive cells, normalized to control condition (buffer = 100%): pooled data
Procedure: Full length recombinant MSRV-Env was produced and purified by PX′Therapeutics (548 aa; 61.44 KDa) (batch 110719-1). The initial concentration was 0.6 mg/ml (9.76 μM). MSRV-Env Buffer (20 mM Trizma-HCl, pH 7.5, 150 mM NaCl, 1.5% SDS, 10 mM DTT) was provided by PX′Therapeutics. This solution was used as a negative control. GNbAC1 (Batch T96/bAC1/B1; GMP production) was produced and purified by Polymun Scientific, Vienna, Austria. The initial concentration was 10 mg/ml (68.03 μM).
Human OPC were stimulated with the different treatments either by coating solutions on the cell culture plate surface before cells seeding or by adding them in the cell culture medium after cells seeding. In any case, labtek 8-wells chamber slides (Nunc) were previously coated with poly-L-lysine (Sigma-Aldrich) overnight at 37° C.
The different treatments were diluted in PBS under a sterile laminar flow hood (Fischer Bioblock, France) and the Labtek 8 wells chambers slides (Nunc; 250 μl per well) were coated as follows: • MSRV-Env (1 μg/ml) coated for 2 hours at 37° C. • MSRV-Env Buffer (same dilution than MSRV-Env) coated for 2 hours at 37° C. • MSRV-Env+GNbAC1 A1: MSRV-Env (1 μg/ml) and GNbAC1 (7.35 μg/ml=50 nM) mixture coated for 2 hours at 37° C. • MSRV-Env+GNbAC1 A2: MSRV-Env (1 μg/ml) and GNbAC1 (29.4 μg/ml=200 nM) mixture coated for 2 hours at 37° C. • MSRV-Env+GNbAC1 B1: MSRV-Env (1 μg/ml) coated for 2 hours at 37° C., washed with PBS and subsequently coated with GNbAC1 (7.35 μg/ml=50 nM) for 1 hour at 37° C. • MSRV-Env+GNbAC1 B2: MSRV-Env (1 μg/ml) coated for 2 hours at 37° C., washed with PBS and subsequently coated with GNbAC1 (29.4 μg/ml=200 nM) for 1 hour at 37° C. • GNbAC1 A1 alone: GNbAC1 (7.35 μg/ml=50 nM) coated for 2 hours at 37° C. • GNbAC1 A2 alone: GNbAC1 (29.4 μg/ml=200 nM) coated for 2 hours at 37° C. • GNbAC1 B1 alone: PBS for 2 hours at 37° C., then coated with GNbAC1 (7.35 μg/ml=50 nM) for 1 hour at 37° C. • GNbAC1 B2 alone: PBS for 2 hours at 37° C., then coated with GNbAC1 (29.4 μg/ml=200 nM) for 1 hour at 37° C. • BSA (1 μg/ml) coated for 2 hours at 37° C. • BSA+GNbAC1 A1: BSA (1 μg/ml) and GNbAC1 (7.35 μg/ml=50 nM) mixture coated for 2 hours at 37° C. • BSA+GNbAC1 A2: BSA (1 μg/ml) and GNbAC1 (29.4 μg/ml=200 nM) mixture coated for 2 hours at 37° C. • BSA+GNbAC1 B1: BSA (1 μg/ml) coated for 2 hours at 37° C., washed with PBS and subsequently coated with GNbAC1 (7.35 μg/ml=50 nM) for 1 hour at 37° C. • BSA+GNbAC1 B2: BSA (1 μg/ml) coated for 2 hours at 37° C., washed with PBS and subsequently coated with GNbAC1 (29.4 μg/ml=200 nM) for 1 hour at 37° C. Human Oligodendrocyte Precursor Cells Culture
The vial containing the human OPC was placed in a 37° C. water bath and gently agitated by rotation until the content was completely thawed. The cells were gently resuspended with a 1 ml Gilson pipette. Then, they were diluted in complete OPCM, and seeded into the 8-wells labtek culture vessels (7000 cells/cm^2=10000 cells per well) previously coated with poly-L-lysine (0.01%, Sigma) and with (or without) the treatments described above (see 3.2.1.1) under a sterile laminar flow hood (Fischer Bioblock, France). The cultures were incubated at 37° C.; 5% CO2 until subsequent immunocytochemistry experiments. The growth medium was changed the next day to remove the residual DMSO and unattached cells in the cultures treated for 72 hours.
After 3 hours of pre-cultivation (see 3.2.1.2) of the human OPC in the 8-well labtek culture vessels, the cells were incubated at 37° C. for 24 hours or 72 hours in 8-wells labteks (250 μl/well) with the addition of the following solutions: • MSRV-Env Buffer, used as a negative control, added in complete cell culture medium • MSRV-Env added at 3 nM (0.184 μg/ml) in complete cell culture medium • MSRV-Env (3 nM)+GNbAC1 (200 nM; 29.4 μg/ml) mixture added in complete cell culture medium • GNbAC1 (200 nM) alone added in complete cell culture medium Expression of TLR4 and Myelination Markers in OPC In Vitro […]

B1: GNbAC1: recombinant humanized anti-Env IgG4 monoclonal antibody comprising the CDRs of SEQ ID No. 1 to 6 (antibody, chains of the INN, looked up, V domains shown)
VH: QVQLVQSGAEVKKPGSSVKVSCKASGYTFTDYEMHWVRQAPGQGLEWIGAVAPETGGTAYNQKFKGRATITADKSTSTAYMELSSLRSEDTAVYYCTSTVVPFAYWGQGTLVTVSS
VL: QIQLTQSPSSLSASVGDRVTITCSASSSVSYMYWYQQKPGKAPKAWIYRTSNLASGVPSRFSGSGSGTDYTLTISSLQPEDFATYYCQQYQSLPLTFGGGTKVEIK
Q: How did the “EAE clinical score kinetics and endpoint” value ([1]; from day 12: GNbAC1 500 μg IP, Sodium Fumarate 10 mg daily in 3.5 ml drinking water, versus isotype control antibody) turn out when B1 was run?
A: significant reversion of their clinical score curves; also recorded: equivalent and significantly good recovery at the end of the study

Q: And the “day from which clinical improvement appeared” value ([1]; treatment started day 12)?
A: 15 days

Q: What about the “effect on the decrease of MBP positive cells induced by coated MSRV-Env” value (human OPC; GNbAC1 50 nM, both protocols, 72 hours) of the same molecule?
A: partial effect; also recorded: partially inhibits MSRV-Env effect

Q: And the “effect on the decrease of MBP positive cells induced by coated MSRV-Env” value (human OPC; GNbAC1 200 nM, both protocols, 72 hours)?
A: complete inhibition

Q: What about the “effect on the inhibition of MBP expression induced by coated MSRV-Env” value (human OPC; GNbAC1 200 nM, both protocols, 72 hours, OPC ICC 03) of the same molecule?
A: completely reverses

Q: What about the “percentage of MBP positive cells” value (human OPC; GNbAC1-A 50 nM, coated MSRV-Env 1 μg/ml, 72 hours, OPC ICC 02) of the same molecule?
A: 69±2%

Q: What about the “MBP positive cells, normalized to control condition (buffer = 100%)” value (human OPC; GNbAC1-A 200 nM with coated MSRV-Env) of the same molecule?
A: 101±2%

Q: And the “percentage of MBP positive cells” value (human OPC; GNbAC1-A 200 nM, coated MSRV-Env 1 μg/ml, 72 hours, OPC ICC 02)?
A: 73±2%

Q: What about the “percentage of MBP positive cells” value (human OPC; GNbAC1-A 200 nM, coated MSRV-Env 1 μg/ml, 72 hours, OPC ICC 03) of the same molecule?
A: 80±2%

Q: And the “percentage of MBP positive cells” value (human OPC; GNbAC1-B 50 nM, coated MSRV-Env 1 μg/ml, 72 hours, OPC ICC 02)?
A: 68±2%

Q: And the “MBP positive cells, normalized to control condition (buffer = 100%)” value (human OPC; GNbAC1-B 200 nM with coated MSRV-Env)?
A: 97±2%

Q: And the “percentage of MBP positive cells” value (human OPC; GNbAC1-B 200 nM, coated MSRV-Env 1 μg/ml, 72 hours, OPC ICC 02)?
A: 74±2%

Q: And the “percentage of MBP positive cells” value (human OPC; GNbAC1-B 200 nM, coated MSRV-Env 1 μg/ml, 72 hours, OPC ICC 03)?
A: 75±2%

Q: And the “percentage of MBP positive cells” value (human OPC; MSRV-Env 3 nM + GNbAC1 200 nM in culture medium, 72 hours)?
A: 76±2%

Q: And the “effect on the decrease of MBP expression induced by MSRV-Env in culture medium” value (human OPC; MSRV-Env 3 nM, GNbAC1 200 nM, 72 hours)?
A: inhibits completely this effect
